Test results: PMC4243253

Tested on: N[C@@H](CC(=O)c1ccccc1NC=O)C(=O)O
Assay: purified protein
Details: 0.1 M sodium phosphate, pH 7.4, 20 μM ZnCl2, 25°C

“PaKynB-His (Pseudomonas aeruginosa PAO1)” showed a Km of 980 ± 130 µM, a Vmax of 0.148 µmol/min and a kcat of 114 s⁻¹. It also gave a kcat/Km of 116000 M⁻¹ s⁻¹.
